Laboratory results reported in patent US20260242487A1 (HANGZHOU ZHONGMEIHUADONG PHARMACEUTICAL, published 2026).

Assays:
[1] = target: T1, hFGFR2b-Fc (Kactus, Catalog #FGR-HM2BB) (human, UniProt P21802-3 22-378, biotinylated in Example 9 (printed as biotin-hFGFR2b-Fc; site not stated)); experiment: competition ELISA: inhibition of biotin-FGF10 binding to coated hFGFR2b-Fc
T1 construct: Bought reagent; also called biotin-hFGFR2b-Fc; not shown: Fc part
Method: (§1) Inhibition of binding of FGF7 and FGF10 to FGFR2b by anti-FGFR2b antibodies was measured by ELISA assay. Each step of each assay was performed by room temperature incubation with the appropriate reagent for 1 hour, except the initial plate coating step was done overnight at 4° C. Between each step, plates were washed 3 times in PBS containing 0.05% Tween 20.
(§2) To determine the abilities of the anti-FGFR2b mAbs to block ligand binding to FGFR2b, plates were coated with 1 μg/ml hFGFR2b-Fc (Kactus, Catalog #FGR-HM2BB), and followed by blocking with 2% BSA. The plates were next incubated with human FGF7-his (20 nM, Sino Biological, Catalog #10210-H07E) or biotin-FGF10 (5 nM, Kactus, Catalog #FGF-HE010B) in the presence of serial diluted (1:5) anti-FGFR2b mAbs, and the bound ligands were detected with HRP-anti 6×His tag (Abcam, Catalog #ab1187) or Streptavidin-Protein HRP (Thermo, Catalog #21126) and TMB substrate (Cell Signaling, Catalog #7004P6).

[2] = target: T1, hFGFR2b-Fc (Kactus, Catalog #FGR-HM2BB); experiment: competition ELISA: inhibition of FGF7-his binding to coated hFGFR2b-Fc
Method: as §1, §2

FGFR2b-his = target: T2, FGFR2b-his (human, UniProt P21802-3 22-378); experiment: surface plasmon resonance (Octet, Sartorius): antibody immobilized by amine coupling, FGFR2b-his flowed over
T2 construct: also called human FGFR2b antigen; human FGFR2b (FGFR2b-his); not shown: his tag
T2 sequence (P21802 other isoform, or with tags, fused parts or gaps): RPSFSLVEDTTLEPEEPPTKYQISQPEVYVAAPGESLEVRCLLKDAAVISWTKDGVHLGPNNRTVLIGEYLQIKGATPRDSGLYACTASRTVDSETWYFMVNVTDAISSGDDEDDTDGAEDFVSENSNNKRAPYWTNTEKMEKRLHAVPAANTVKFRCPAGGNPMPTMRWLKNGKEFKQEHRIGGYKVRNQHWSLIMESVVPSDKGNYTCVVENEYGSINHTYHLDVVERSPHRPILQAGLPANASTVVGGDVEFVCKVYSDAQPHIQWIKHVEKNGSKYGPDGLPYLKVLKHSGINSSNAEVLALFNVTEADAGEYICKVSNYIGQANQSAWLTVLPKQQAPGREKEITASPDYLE
Method: The binding affinities of anti-FGFR2b mAbs for human FGFR2b (FGFR2b-his) was measured using surface plasmon resonance (Octet, Sartorius). Anti-FGFR2b mAbs were immobilized on a dextran chip using the amine coupling kit and 100 mM ethylenediamine in 100 mM sodium borate, pH 8.0, was used as the blocking reagent. FGFR2b-his proteins diluted in HEPES-buffered saline with 0.05% surfactant P20 running buffer were flowed over the immobilized antibody.

[3] = target: T3, human FGFR2b expressed on cells (hFGFR2b-expressing CHOK1 cells); Ba/F3 cells expressing full-length human … (human, UniProt P21802-3 22-822); experiment: flow cytometry on CHOK1 cells expressing hFGFR2b, detection with APC anti-human IgG Fc
T3 construct: whole, on cells; also called FGFR2IIIb; CHOK1-FGFR2IIIb transfectants
T3 sequence (P21802 other isoform, or with tags, fused parts or gaps): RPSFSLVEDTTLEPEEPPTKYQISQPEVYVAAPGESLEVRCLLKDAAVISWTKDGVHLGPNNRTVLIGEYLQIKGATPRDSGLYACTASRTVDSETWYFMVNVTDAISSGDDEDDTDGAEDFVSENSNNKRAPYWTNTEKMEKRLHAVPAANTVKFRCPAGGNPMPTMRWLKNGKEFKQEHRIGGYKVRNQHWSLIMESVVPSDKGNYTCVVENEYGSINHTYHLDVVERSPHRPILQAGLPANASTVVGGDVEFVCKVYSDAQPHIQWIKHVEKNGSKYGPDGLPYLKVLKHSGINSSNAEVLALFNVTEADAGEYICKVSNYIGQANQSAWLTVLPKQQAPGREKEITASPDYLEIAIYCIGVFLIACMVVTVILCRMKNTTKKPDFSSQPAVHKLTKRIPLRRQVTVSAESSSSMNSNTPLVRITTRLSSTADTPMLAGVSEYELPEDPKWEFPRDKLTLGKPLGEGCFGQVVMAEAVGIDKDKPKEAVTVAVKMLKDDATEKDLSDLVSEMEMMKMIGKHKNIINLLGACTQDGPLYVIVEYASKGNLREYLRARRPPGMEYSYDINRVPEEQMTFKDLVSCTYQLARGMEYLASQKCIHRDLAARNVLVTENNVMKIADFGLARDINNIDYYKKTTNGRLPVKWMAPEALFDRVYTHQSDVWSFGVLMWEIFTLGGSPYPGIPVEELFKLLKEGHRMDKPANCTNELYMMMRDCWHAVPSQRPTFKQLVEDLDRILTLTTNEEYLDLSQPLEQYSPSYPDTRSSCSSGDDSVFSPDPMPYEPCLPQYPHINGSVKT
Method: Appropriate cells (1×10⁵) were washed twice in FACS buffer (PBS+2% BSA), resuspended in 100 μl of FACS buffer containing serial diluted (1:5) anti-FGFR2b mAbs, and incubated at 4° C. for 1 hour. Cells were then washed twice in FACS buffer and the bound antibodies were detected by incubation with APC anti-human IgG Fc (Biolegend, Catalog #410712) for 1 hour at 4° C. After washing twice in FACS buffer, cells were analyzed on a Cytoflex (Beckmann Coulter). Aprutumab was also tested as a positive control which can bind to both FGFR2b and FGFR2c.

IC50 [1]: 4.99 nM
IC50 [2]: 3.82 nM
Kd (FGFR2b-his): 26.7 nM
koff (FGFR2b-his): 0.005 s⁻¹
kon (FGFR2b-his): 187000 M⁻¹ s⁻¹
EC50 (read off the curve) [3]: ~0.4 nM
B1: HC18 (antibody, human IgG1, kappa, V domains shown)
VH: EVQLQQSGTVLARPGASVKMSCKTSGYTFTSYWMHWVKQRPGQGLEWIGSIYPENSDTSYNQKFKGKAKLTAVTSASTAYMDLSSLTNEDSAVYYCSIYHGYDGDYWGQGTTLTVSS
VL: QIVLTQSPAIMSASPGEKVTITCSASSSVSYMYWFQQKPGTSPKLWIYSTSNLASGVPARFSGSGSGTSYSLTISRMEAEDAATYYCQQRSSYPYTFGGGTKLEIKR
notes: also called mAb HC18; the antibody of the present disclosure
